Test results from patent publication US20240392020A1 (JIANGSU HENGRUI PHARMACEUTICALS, published 2024).
Changes are numbered by the printed parent chain.

T1: B7H3 on the recombinant cell line CT26-B7H3 (UniProt Q5ZPR3 29-534, limits assumed)
T1 construct: whole, on cells
T1 sequence (looked up): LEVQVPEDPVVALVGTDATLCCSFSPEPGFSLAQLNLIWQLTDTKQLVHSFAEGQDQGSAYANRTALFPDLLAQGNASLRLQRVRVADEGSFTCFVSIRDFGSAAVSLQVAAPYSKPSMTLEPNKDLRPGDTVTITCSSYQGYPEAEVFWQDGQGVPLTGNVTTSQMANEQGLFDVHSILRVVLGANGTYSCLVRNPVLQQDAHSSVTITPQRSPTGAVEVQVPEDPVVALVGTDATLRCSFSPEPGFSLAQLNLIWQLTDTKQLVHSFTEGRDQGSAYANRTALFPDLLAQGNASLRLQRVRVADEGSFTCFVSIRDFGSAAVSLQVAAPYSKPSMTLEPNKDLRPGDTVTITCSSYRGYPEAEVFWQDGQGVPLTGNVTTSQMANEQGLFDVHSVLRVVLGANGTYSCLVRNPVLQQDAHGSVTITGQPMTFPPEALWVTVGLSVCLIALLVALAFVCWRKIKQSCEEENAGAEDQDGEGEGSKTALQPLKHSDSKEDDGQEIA

B1: H0 (antibody, human IgG1, kappa)
heavy: not shown
light: DIQMTQSPSSVSASVGDRVTITCRASQDIANYLSWYQQKPGKSPKLLIYGTSNLEVGVPSRFSGSRSGTDFTLTISSLQPEDFATYYCLQDKEFPRTFGGGTKVEIKRTVAAPSVFIFPPSDEQLKSGTASVVCLLNNFYPREAKVQWKVDNALQSGNSQESVTEQDSKDSTYSLSSTLTLSKADYEKHKVYACEVTHQGLSSPVTKSFNRGEC
B2: H1 (antibody)
heavy: not shown
light: DIQMTQSPSSVSASVGDRVTITCRASQDIANYLSWYQQKPGKSPKLLIYGTSNLEVGVPSRFSGSRSGTDFTLTISSLQPEDFATYYCLQDKEFPRTFGGGTKVEIKGILQPDPPANITVTAVARNPRWLSVTWQDPHSWNSSFYRLRFELRYRAERSKTFTTWMVKDLQHHCVIHDAWSGLRHVVQLRAQEEFGQGEWSEWSPEAMGTPW
B3: H2 (antibody)
heavy: not shown
light: DIQMTQSPSSVSASVGDRVTITCRASQDIANYLSWYQQKPGKSPKLLIYGTSNLEVGVPSRFSGSRSGTDFTLTISSLQPEDFATYYCLQDKEFPRTFGGGTKVEIKFDPVYKVKPNPPHNLSVINSEELSSILKLTWTNPSIKSVIILKYNIQYRTKDASTWSQIPPEDTASTRSSFTVQDLKPFTEYVFRIRCMKEDGKGYWSDWSEEASGIT
B4: F8 (antibody)
heavy: not shown
light: DTVVTQEPSFSVSPGGTVTLTCGLSSGSVSTSHYPSWYQQTPGQAPRMLIYNTNTRSSGVPDRFSGSILGNKAALTITGAQADDESDYYCAIHVDRDIWVFGGGTKLTVLSGAPRFLTRPKAFVVSVGKDATLSSQIVGNPTPQVSWEKDQQPVAAGARFRLAQDGDLYRLTILDLALGDSGQYVSRARNAIGEAFACVGLQVDAEA
B5: F3 (antibody)
heavy: not shown
light: B4 light with S135C, S186C, C198A
B6: F5 (antibody)
heavy: not shown
light: B4 light with S135C, S186C
B7: F6 (antibody)
heavy: not shown
light: B4 light with A113C, S135C, S186C, C198A
B8: F7 (antibody)
heavy: not shown
light: B4 light with R119C, S135C, S186C, C198A
B9: F9 (antibody)
heavy: not shown
light: B4 light with A113C, C198A
B10: F10 (antibody)
heavy: not shown
light: B4 light with R119C, C198A
B11: F11 (antibody)
heavy: not shown
light: DTVVTQEPSFSVSPGGTVTLTCGLSSGSVSTSHYPSWYQQTPGQAPRMLIYNTNTRSSGVPDRFSGSILGNKAALTITGAQADDESDYYCAIHVDRDIWVFGGGTKLTVLQGSPPEFLRFPRPVRVVSGAEAELKCVVLGEPPPVVVWEKGGQQLAASERLSFPADGAEHGLLLTAALPTDAGCYVCRARNAAGEAYAAAAVTVLEPP
B12: F4 (antibody)
heavy: not shown
light: B11 light with E116C, C184V
B13: F12 (antibody)
heavy: not shown
light: B11 light with C184V, G194C
B14: F13 (antibody)
heavy: not shown
light: B11 light with C184V, A196C
B15: F14 (antibody)
heavy: not shown
light: B11 light with C136S, C187S
B16: F15 (antibody)
heavy: not shown
light: B11 light with C136S, C184V, C187S, G194C
B17: V5 (antibody)
heavy: not shown
light: QIVLTQSPAILSASPGEKVTMTCRASSSVSYMNWYQQKPGSSPKPWIYATSNLASGVPARFSVSVSGTSHSLTISRVEAEDAATYYCQQWSSNPLTFGAGTKLELKGIPPKIEALPSDISIDEGKVLTVACAFTGEPTPEVTWSCGGRKIHSQEQGRFHIENTDDLTTLIIMDVQKQDGGLYTLSLGNEFGSDSATVNIHIRSI
B18: V6 (antibody)
heavy: not shown
light: B17 light
B19: S0 (antibody, human IgG1, kappa)
heavy: not shown
light: DIQMTQSPASLSASVGDRVTITCRASENIFSYLAWYQQKPGKSPKLLVYNTRTLAEGVPSRFSGSGSGTDFSLTISSLQPEDFATYYCQHHYGTPFTFGSGTKLEIKRTVAAPSVFIFPPSDEQLKSGTASVVCLLNNFYPREAKVQWKVDNALQSGNSQESVTEQDSKDSTYSLSSTLTLSKADYEKHKVYACEVTHQGLSSPVTKSFNRGEC
notes: also called SO
B20: S3 (antibody)
heavy: not shown
light: DIQMTQSPASLSASVGDRVTITCRASENIFSYLAWYQQKPGKSPKLLVYNTRTLAEGVPSRFSGSGSGTDFSLTISSLQPEDFATYYCQHHYGTPFTFGSGTKLEIKQGSPPCFLRFPRPVRVVSGAEAELKCVVLGEPPPVVVWEKGGQQLAASERLSFPADGAEHGLLLTAALPTDAGVYVCRARNAAGEAYAAAAVTVLEPP
B21: S4 (antibody)
heavy: not shown
light: DIQMTQSPASLSASVGDRVTITCRASENIFSYLAWYQQKPGKSPKLLVYNTRTLAEGVPSRFSGSGSGTDFSLTISSLQPEDFATYYCQHHYGTPFTFGSGTKLEIKGIPPKIEALPSDISIDEGKVLTVACAFTGEPTPEVTWSCGGRKIHSQEQGRFHIENTDDLTTLIIMDVQKQDGGLYTLSLGNEFGSDSATVNIHIRSI
B22: F1 (antibody)
heavy: not shown
light: DTVVTQEPSFSVSPGGTVTLTCGLSSGSVSTSHYPSWYQQTPGQAPRMLIYNTNTRSSGVPDRFSGSILGNKAALTITGAQADDESDYYCAIHVDRDIWVFGGGTKLTVLGILQPDPPANITVTAVARNPRWLSVTWQDPHSWNSSFYRLRFELRYRAERSKTFTTWMVKDLQHHCVIHDAWSGLRHVVQLRAQEEFGQGEWSEWSPEAMGTPW
B23: F2 (antibody)
heavy: not shown
light: DTVVTQEPSFSVSPGGTVTLTCGLSSGSVSTSHYPSWYQQTPGQAPRMLIYNTNTRSSGVPDRFSGSILGNKAALTITGAQADDESDYYCAIHVDRDIWVFGGGTKLTVLFDPVYKVKPNPPHNLSVINSEELSSILKLTWTNPSIKSVIILKYNIQYRTKDASTWSQIPPEDTASTRSSFTVQDLKPFTEYVFRIRCMKEDGKGYWSDWSEEASGIT
B24: V0 (antibody, human IgG1, lambda)
heavy: not shown
light: QIVLTQSPAILSASPGEKVTMTCRASSSVSYMNWYQQKPGSSPKPWIYATSNLASGVPARFSVSVSGTSHSLTISRVEAEDAATYYCQQWSSNPLTFGAGTKLELKGQPKAAPSVTLFPPSSEELQANKATLVCLISDFYPGAVTVAWKADSSPVKAGVETTTPSKQSNNKYAASSYLSLTPEQWKSHRSYSCQVTHEGSTVEKTVAPTECS
B25: V1 (antibody)
heavy: not shown
light: QIVLTQSPAILSASPGEKVTMTCRASSSVSYMNWYQQKPGSSPKPWIYATSNLASGVPARFSVSVSGTSHSLTISRVEAEDAATYYCQQWSSNPLTFGAGTKLELKGILQPDPPANITVTAVARNPRWLSVTWQDPHSWNSSFYRLRFELRYRAERSKTFTTWMVKDLQHHCVIHDAWSGLRHVVQLRAQEEFGQGEWSEWSPEAMGTPW
B26: V3 (antibody)
heavy: not shown
light: QIVLTQSPAILSASPGEKVTMTCRASSSVSYMNWYQQKPGSSPKPWIYATSNLASGVPARFSVSVSGTSHSLTISRVEAEDAATYYCQQWSSNPLTFGAGTKLELKSGAPRFLTRPKAFVVSVGKDATLSCQIVGNPTPQVSWEKDQQPVAAGARFRLAQDGDLYRLTILDLALGDSGQYVCRARNAIGEAFAAVGLQVDAEA
B27: V4 (antibody)
heavy: not shown
light: QIVLTQSPAILSASPGEKVTMTCRASSSVSYMNWYQQKPGSSPKPWIYATSNLASGVPARFSVSVSGTSHSLTISRVEAEDAATYYCQQWSSNPLTFGAGTKLELKQGSPPCFLRFPRPVRVVSGAEAELKCVVLGEPPPVVVWEKGGQQLAASERLSFPADGAEHGLLLTAALPTDAGVYVCRARNAAGEAYAAAAVTVLEPP

target: T2, hIL-5 (human, UniProt P05113 20-134); assay: ELISA
T2 construct: bought
Experimental: For an antibody targeting a soluble protein, the binding activity of the antibody against the soluble protein was detected by ELISA. […] After the blocking was completed, the blocking solution was discarded; and the plate was washed 3 times with a PBST buffer (pH 7.4, PBS containing 0.1% tween-20). 100 μL of the antibody solution diluted in a gradient was added to each well, and the mixture was incubated at 37° C. for 1 h. After the incubation was completed, the plate was washed 3 times with PBST. […] The plate was washed 3 times with PBST. […] The reaction was stopped by adding 50 μL of 1 M H₂SO₄ to each well. The absorbance values at 450 nm were read on a microplate reader, the binding curves of the antibodies to an antigen were fitted with software, and the EC₅₀ values were calculated.

First: B1
Second: B2
The EC50 of the first is 11-fold lower: 1.74 nM for the first, 19.4 nM for the second. The first is the more potent here.

In the case of B3, the EC50 is reported as 24.4 nM.

target: T1, B7H3 on the recombinant cell line …; assay: FACS, CT26-B7H3 cells

B4 and B5 are within 1.5-fold of each other in EC50: 3.14 nM for the first, 2.64 nM for the second.

Going from B6 to B7, the EC50 rises from 1.21 nM to 2.71 nM (2.2-fold). The first is the more potent here.

B8 and B9 are within 1.5-fold of each other in EC50: 3.38 nM for the first, 3.52 nM for the second.

First: B10
Second: B11
The EC50 of the first is 1.6-fold lower: 3.94 nM for the first, 6.15 nM for the second.

Going from B12 to B13, the EC50 rises from 3.01 nM to 8.19 nM (2.7-fold). The first is the more potent here.

B14 and B15 are within 1.5-fold of each other in EC50: 6.08 nM for the first, 5.15 nM for the second.

B16 was tested, and the EC50 was 4.44 nM.

target: T1, B7H3 on the recombinant cell line …; assay: FACS, CT26-B7H3 cells; remark: another data set of the same source

B17 and B18 are within 1.5-fold of each other in EC50: 3.2 nM for the first, 4.7 nM for the second.

Compared with B19, B20 is 3.5-fold higher in EC50: 1.01 nM for the first, 3.5 nM for the second. The first is the more potent here.

Going from B21 to B22, the EC50 rises from 1.96 nM to 71.6 nM (37-fold). The first is the more potent here.

Going from B23 to B5, the EC50 falls from 59.3 nM to 2.83 nM (21-fold). The second is the more potent here.

B12 and B24 are within 1.5-fold of each other in EC50: 2.17 nM for the first, 1.8 nM for the second.

Compared with B25, B26 is 11-fold lower in EC50: 38.4 nM for the first, 3.6 nM for the second.

Binder B27 has an EC50 of 2.9 nM.
